Source: article PMC3581365 (The Journal of Biological Chemistry, 2013)

T1: HP0892 fused with His tag at the C terminus (HP0892-His) (H. pylori 26695, UniProt O25552 1-90)
T1 sequence: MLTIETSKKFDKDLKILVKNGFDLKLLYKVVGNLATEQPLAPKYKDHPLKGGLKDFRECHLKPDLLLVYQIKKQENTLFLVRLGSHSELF

T2: HP0893 expressed as a C-terminal His tag fusion (HP0893-His) (H. pylori 26695, UniProt O25553 1-95)
T2 sequence (looked up): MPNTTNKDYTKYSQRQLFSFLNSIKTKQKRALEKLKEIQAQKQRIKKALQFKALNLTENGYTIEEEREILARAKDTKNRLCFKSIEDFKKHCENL


Experiments:
[1] = molecular target: T1, HP0892 fused with His tag at the C …; test: NMR titration
[2] = molecular target: T2, HP0893 expressed as a C-terminal His …; test: pull-down

Binder | stoichiometry N [1] | stoichiometry N [2]
EREILARAKDTKNRLCFKSIEDFKKHCENL (peptide, UniProt O25553 66-95, looked up) [HP0893Ctp, 30-residue peptide corresponding to the C-terminal region (Glu-66 to Leu-95) of HP0893] | 1 | 
HP0892 without any purification tag or non-native residues (natural protein, H. pylori 26695, UniProt O25552 1-90, looked up) MLTIETSKKFDKDLKILVKNGFDLKLLYKVVGNLATEQPLAPKYKDHPLKGGLKDFRECHLKPDLLLVYQIKKQENTLFLVRLGSHSELF |  | 1
